Laboratory results: PMC314469, “Protein Interaction Networks by Proteome Peptide Scanning” (PLoS Biology, 2004)

T1: amphyphisin SH3 (AMPH_HUMAN), P49418
T1 chain: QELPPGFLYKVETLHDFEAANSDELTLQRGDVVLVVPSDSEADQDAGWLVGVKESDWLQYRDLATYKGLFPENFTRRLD


How the values were obtained:
[1] = target: endophilin SH3 (SH3G2_HUMAN), Q99962; experiment: SPOT array
[2] = target: T1, amphyphisin SH3 (AMPH_HUMAN), P49418; experiment: SPOT array

normalised SPOT signal, Boehringer light units (BLU); mean over the file's lines of this peptide [1] | normalised SPOT signal, Boehringer light units (BLU); mean over the file's lines of this peptide [2] | Binder
10.4 | 24.6 | KLGTLRRPEGPAEP [Q14289 12-25]
21200 | 64.8 | KGSKPVRPPAPGHG [Q9UH43 133-147]
146 | 485 | KLMEPHRPERQDEK [P49593 287-300]
22.4 | 45.6 | KLEDPRRPDTSFLW [O75923 2014-2027]
1390 | 2170 | KLDTPLRPARQQPT [Q14775 472-485]
322 | 12.6 | ANLALRRPQGSTSR [P06681 588-601]
226 | 66.4 | KDLALLRPSKRQPP [Q9H6A9 265-278]
25.2 | 33.1 | KGRVLKRPPNSVVT [Q9HC49 341-354]
20.1 | 258 | AMLSIPRPSKRFWM [Q92508 1232-1245]
200 | 149 | KIGFFKRPLKKKME [P56199 1137-1150]
167 | 36.3 | KGAPFRRPLYTNVP [Q9NQ11 1067-1080]
86.2 | 21.4 | KFLDPSRPYKSTVS [Q15911 1537-1550]
11600 | 100 | KAVLPLRPPWPLWG [AAH32349 3-17]
106 | 2590 | KKDSFERPRRVGAK [O95391 130-143]
412 | 1150 | KDPGPPRPHRPEAT [Q9Y6J0 1992-2005]
228 | 21.8 | ANIRLKRPLKMEDP [P23378 97-110]
195 | 11.1 | KKYLPKRPAKDDPE [Q15642 51-64]
276 | 56.3 | KEMVPAKPPKGLVG [Q99651 220-234]
198 | 476 | ANKILNRPKRYNSG [P00740 37-50]
516 | 35.5 | KGTIPKRPWLSATP [O15043 393-406]
1.7 | 0 | KLMKFSRPKKTRSG [Q9UIG2 1550-1563]

normalised SPOT signal, Boehringer light units (BLU); mean over the file's lines of this peptide [1] | normalised SPOT signal, Boehringer light units (BLU); mean over the file's lines of this peptide [2] | Binder
82.6 | 59.9 | KGPGPQKPPTEADK [O15021 1933-1947]
492 | 1200 | KISWLSRPRRVSLS [Q13577 12-25]
737 | 56 | KPASPKKPPPGERS [O60382 1692-1706]
11900 | 150 | KKPVPARPPPPTNF [AAH28697 228-242]
132 | 39 | KIIPPKKPPTKVVP [Q8WZ42 11374-11388]
63.9 | 39 | KEQEPKRPHIKKPL [Q9UJU2 290-303]
55.9 | 77.8 | KNRTFLRPPKVKME [O75937 248-261]
34 | 26.8 | KIVDPKRPLMPEES [Q9BXK3 581-594]
2730 | 6680 | KITPPRRPHRSSSG [Q9NWB4 151-164]
43.5 | 20.4 | KFLDPARPYKSTVS [Q9C0A1 71-84]
316 | 46.6 | KLFRPRRPRSSSDA [O94820 221-234]
81 | 15.8 | KKPPLRRPHSVIGG [Q00537 66-79]
86.6 | 66.7 | KDVLFIRPRKYIHS [Q92613 102-115]
229 | 43.9 | KDPGPPRPPAGATQ [Q9H7K4 46-60]
61.9 | 44.3 | KFWDLRRPYEPINS [Q16632 639-652]
9990 | 1310 | KIPKPPKPPKPPRP [Q9Y6N4 503-517]
314 | 30.5 | KDEKPKRPEDESGR [Q9BZI7 330-343]
342 | 327 | KNLDISRPDKKSKK [P46977 431-444]
803 | 32.4 | KLKSPKRPASPSSP [Q9H8D2 66-79]
307 | 159 | KKPDIPRPIKINLL [Q9UHI5 412-425]
779 | 43.2 | KPASPKKPPPGERR [Q9UQ36 1183-1197]
